Test results from article PMC11428563, “Systematic design and evaluation of aptamers for VEGF and PlGF biomarkers of Preeclampsia”.

Legend:
Conditions in all cases: protein: commercial; tags: His; chain copies: 2
[1] = target: T1, PlGF (Human PlGF / PGF (19-149) Protein, His Tag, Acrobiosystems PGF-H52H5) (human, UniProt P49763-2 19-149); assay: BLI; kon 1.772e4 1/Ms; koff 2.049e-1 1/s; BLI (Octet R4, anti-penta-His HIS1K sensors): protein loaded in phosphate buffer pH 7.4 (PlGF 2.5 ug/mL, VEGF 10 ug/mL); aptamers 0-20 uM in 1X Sartorius Kinetics Buffer; 1:1 global fit, triplicate; temperature not stated
T1 sequence: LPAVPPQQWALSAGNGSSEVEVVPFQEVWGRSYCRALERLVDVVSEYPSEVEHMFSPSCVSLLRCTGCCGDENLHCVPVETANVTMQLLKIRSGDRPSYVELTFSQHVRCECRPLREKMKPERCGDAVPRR

[2] = target: T1, PlGF (Human PlGF / PGF (19-149) …); assay: BLI; kon 2.746e3 1/Ms; koff 5.548e-7 1/s; BLI (Octet R4, anti-penta-His HIS1K sensors): protein loaded in phosphate buffer pH 7.4 (PlGF 2.5 ug/mL, VEGF 10 ug/mL); aptamers 0-20 uM in 1X Sartorius Kinetics Buffer; 1:1 global fit, triplicate; temperature not stated
[3] = target: T1, PlGF (Human PlGF / PGF (19-149) …); assay: BLI; kon 3.169e3 1/Ms; koff 2.150e-1 1/s; BLI (Octet R4, anti-penta-His HIS1K sensors): protein loaded in phosphate buffer pH 7.4 (PlGF 2.5 ug/mL, VEGF 10 ug/mL); aptamers 0-20 uM in 1X Sartorius Kinetics Buffer; 1:1 global fit, triplicate; temperature not stated

ACAGGCACA (ssRNA) [PlGF-Apt2] showed a Kd [1] of 17.7 µM.

AGAGAACGCAAGAGA (ssRNA) [PlGF-Apt3] showed a Kd [2] of 0.000298 µM.

Work on CGAAGAGACGCAGAGAAGC (ssRNA) [PlGF-Apt4] yielded a Kd [3] of 49.7 µM.
